Laboratory results as given in patent publication US20220153847A1 (Chugai, published 2022).

Tests used:
[1] = molecular target: DQ2.5/alpha 2 gliadin peptide on IHW9023 cells (human); experiment: cell-based or functional assay
[2] = molecular target: DQ2.5/omega 2 gliadin peptide on IHW9023 cells (human); experiment: cell-based or functional assay
[3] = molecular target: DQ2.5/gamma 1 gliadin peptide on IHW9023 cells (human); experiment: cell-based or functional assay
[4] = molecular target: DQ2.5/BC hordein peptide on IHW9023 cells (human); experiment: cell-based or functional assay
HLA-DQ2.2 on Ba/F3 cells = molecular target: T1, HLA-DQ2.2 on Ba/F3 cells (human, UniProt P01909 24-216, limits assumed); experiment: FACS, Ba/F3 cells; IC17=0%, DQN0139bb=100%;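 further: flow cytometric binding of anti-HLA-DQ antibodies, each applied at 5 µg/mL for 30 min at room temperature, to Ba/F3 cell lines displaying HLA-DQ–peptide complexes; antibody tested at 5 microgram/mL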
T1 construct: whole, on cells; also called Ba/F3-HLA-DQ2.2
Source text: (§1) The binding of anti-HLA-DQ antibodies to Ba/F3-HLA-DQ2.5, Ba/F3-HLA-DQ2.2, Ba/F3-HLA-DQ7.5, Ba/F3-HLA-DQ8, Ba/F3-HLA-DQ5.1, Ba/F3-HLA-DQ6.3, Ba/F3-HLA-DQ7.3, Ba/F3-HLA-DR, Ba/F3-HLA-DP, Ba/F3-HLA-DQ2.5/CLIP, Ba/F3-HLA-DQ2.5/HBV, Ba/F3-HLA-DQ2.5/Salmonella, Ba/F3-HLA-DQ2.5/TPO, Ba/F3-HLA-DQ2.5/M. bovis, Ba/F3-HLA-DQ2.5/alpha 1 gliadin, Ba/F3-HLA-DQ2.5/alpha 2 gliadin, Ba/F3-HLA-DQ2.5/gamma 1 gliadin, Ba/F3-HLA-DQ2.5/gamma 2 gliadin, Ba/F3-HLA-DQ2.5/omega 1 gliadin, Ba/F3-HLA-DQ2.5/omega 2 gliadin, Ba/F3-HLA-DQ2.5/BC hordein, Ba/F3-HLA-DQ2.5/alpha 3 gliadin, Ba/F3-HLA-DQ2.5/alpha 1b gliadin, Ba/F3-HLA-DQ2.5/gamma 4b gliadin, Ba/F3-HLA-DQ2.5/avenin 1, Ba/F3-HLA-DQ2.5/avenin 2, Ba/F3-HLA-DQ2.5/avenin 3, Ba/F3-HLA-DQ2.5/hordein 1, Ba/F3-HLA-DQ2.5/hordein 2, Ba/F3-HLA-DQ2.5/secalin 1, Ba/F3-HLA-DQ2.5/secalin 2, Ba/F3-HLA-DQ2.5/14mer 1, Ba/F3-HLA-DQ2.5/33mer gliadin, Ba/F3-HLA-DQ2.5/26mer gliadin, was tested. 5 microgram/mL of each of the anti-HLA-DQ antibodies was incubated with each cell line for 30 minutes at room temperature and washed with FACS buffer (2% FBS, 2 mM EDTA in PBS).
T1 MHC II alpha: not shown
T1 MHC II beta: not shown

HLA-DQ7.5 on Ba/F3 cells = molecular target: T2, HLA-DQ7.5 on Ba/F3 cells (human, UniProt P01909 24-216; P01920 33-230, limits assumed); experiment: FACS, Ba/F3 cells; IC17=0%, DQN0139bb=100%;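 further: flow cytometric binding of anti-HLA-DQ antibodies, each applied at 5 µg/mL for 30 min at room temperature, to Ba/F3 cell lines displaying HLA-DQ–peptide complexes; antibody tested at 5 microgram/mL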
T2 construct: whole, on cells; also called Ba/F3-HLA-DQ7.5
T2 sequence (P01920 33-230 limits assumed, chain 2 of 4, other chains not shown): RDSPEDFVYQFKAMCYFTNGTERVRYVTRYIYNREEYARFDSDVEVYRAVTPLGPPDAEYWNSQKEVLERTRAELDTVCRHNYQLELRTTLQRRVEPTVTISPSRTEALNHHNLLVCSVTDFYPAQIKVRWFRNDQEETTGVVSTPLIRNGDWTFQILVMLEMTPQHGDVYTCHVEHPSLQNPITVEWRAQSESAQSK
Source text: as §1

HLA-DQ8 on Ba/F3 cells = molecular target: T3, HLA-DQ8 on Ba/F3 cells (human, UniProt P01909 24-216; P01920 33-230, limits assumed); experiment: FACS, Ba/F3 cells; IC17=0%, DQN0139bb=100%;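 further: flow cytometric binding of anti-HLA-DQ antibodies, each applied at 5 µg/mL for 30 min at room temperature, to Ba/F3 cell lines displaying HLA-DQ–peptide complexes; antibody tested at 5 microgram/mL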
T3 construct: whole, on cells; also called Ba/F3-HLA-DQ8
Source text: as §1
T3 MHC II alpha: not shown
T3 MHC II beta: not shown

HLA-DQ7.3 on Ba/F3 cells = molecular target: T4, HLA-DQ7.3 on Ba/F3 cells (human, UniProt P01909 24-216; P01920 33-230, limits assumed); experiment: FACS, Ba/F3 cells; IC17=0%, DQN0139bb=100%;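 further: flow cytometric binding of anti-HLA-DQ antibodies, each applied at 5 µg/mL for 30 min at room temperature, to Ba/F3 cell lines displaying HLA-DQ–peptide complexes; antibody tested at 5 microgram/mL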
T4 construct: whole, on cells; also called Ba/F3-HLA-DQ7.3
Source text: as §1
T4 MHC II alpha: not shown
T4 MHC II beta: not shown

[5] = molecular target: T5, HLA-DQ2.5/CLIP peptide complex on Ba/F3 cells (human); experiment: FACS, Ba/F3 cells; IC17=0%, DQN0139bb=100%
T5 construct: whole, on cells; also called Ba/F3-HLA-DQ2.5/CLIP
T5 sequence (P04233 96-124, chain 2 of 2, other chains not shown): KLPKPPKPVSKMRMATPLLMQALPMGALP
Source text: as §1

[6] = molecular target: T6, HLA-DQ2.5/33mer gliadin peptide complex on Ba/F3 cells (human); experiment: FACS, Ba/F3 cells; IC17=0%, DQN0139bb=100%
T6 construct: whole, on cells; also called Ba/F3-HLA-DQ2.5/33mer gliadin
Source text: as §1

[7] = molecular target: T7, HLA-DQ2.5/alpha 2 gliadin peptide complex on Ba/F3 cells (human); experiment: FACS, Ba/F3 cells; IC17=0%, DQN0139bb=100%
T7 construct: whole, on cells; also called Ba/F3-HLA-DQ2.5/alpha 2 gliadin; HLA-DQ2.5/a2 gliadin
Source text: as §1

[8] = molecular target: T8, HLA-DQ2.5/gamma 1 gliadin peptide complex on Ba/F3 cells (human); experiment: FACS, Ba/F3 cells; IC17=0%, DQN0139bb=100%
T8 construct: whole, on cells; also called Ba/F3-HLA-DQ2.5/gamma 1 gliadin; HLA-DQ2.5/g1 gliadin
Source text: as §1

[9] = molecular target: T9, HLA-DQ2.5/gamma 2 gliadin peptide complex on Ba/F3 cells (human); experiment: FACS, Ba/F3 cells; IC17=0%, DQN0139bb=100%
T9 construct: whole, on cells; also called Ba/F3-HLA-DQ2.5/gamma 2 gliadin; HLA-DQ2.5/g2 gliadin
Source text: as §1

[10] = molecular target: T10, HLA-DQ2.5/omega 1 gliadin peptide complex on Ba/F3 cells (human); experiment: FACS, Ba/F3 cells; IC17=0%, DQN0139bb=100%
T10 construct: whole, on cells; also called Ba/F3-HLA-DQ2.5/omega 1 gliadin; HLA-DQ2.5/w1 gliadin
Source text: as §1

[11] = molecular target: T11, HLA-DQ2.5/omega 2 gliadin peptide complex on Ba/F3 cells (human); experiment: FACS, Ba/F3 cells; IC17=0%, DQN0139bb=100%
T11 construct: whole, on cells; also called Ba/F3-HLA-DQ2.5/omega 2 gliadin; HLA-DQ2.5/w2 gliadin
Source text: as §1

[12] = molecular target: T12, HLA-DQ2.5/BC hordein peptide complex on Ba/F3 cells (human); experiment: FACS, Ba/F3 cells; IC17=0%, DQN0139bb=100%
T12 construct: whole, on cells; also called Ba/F3-HLA-DQ2.5/BC hordein
Source text: as §1

[13] = molecular target: T13, HLA-DQ2.5/alpha 3 gliadin peptide complex on Ba/F3 cells (human); experiment: FACS, Ba/F3 cells; IC17=0%, DQN0139bb=100%
T13 construct: whole, on cells; also called Ba/F3-HLA-DQ2.5/alpha 3 gliadin; HLA-DQ2.5/a3 gliadin
Source text: as §1

[14] = molecular target: T14, HLA-DQ2.5/alpha 1b gliadin peptide complex on Ba/F3 cells (human); experiment: FACS, Ba/F3 cells; IC17=0%, DQN0139bb=100%
T14 construct: whole, on cells; also called Ba/F3-HLA-DQ2.5/alpha 1b gliadin; HLA-DQ2.5/a1b gliadin
Source text: as §1

[15] = molecular target: T15, HLA-DQ2.5/gamma 4b gliadin peptide complex on Ba/F3 cells (human); experiment: FACS, Ba/F3 cells; IC17=0%, DQN0139bb=100%
T15 construct: whole, on cells; also called Ba/F3-HLA-DQ2.5/gamma 4b gliadin; HLA-DQ2.5/g4b gliadin
Source text: as §1

[16] = molecular target: T16, HLA-DQ2.5/avenin 1 peptide complex on Ba/F3 cells (human); experiment: FACS, Ba/F3 cells; IC17=0%, DQN0139bb=100%
T16 construct: whole, on cells; also called Ba/F3-HLA-DQ2.5/avenin 1
Source text: as §1

[17] = molecular target: T17, HLA-DQ2.5/avenin 2 peptide complex on Ba/F3 cells (human); experiment: FACS, Ba/F3 cells; IC17=0%, DQN0139bb=100%
T17 construct: whole, on cells; also called Ba/F3-HLA-DQ2.5/avenin 2
Source text: as §1

[18] = molecular target: T18, HLA-DQ2.5/avenin 3 peptide complex on Ba/F3 cells (human); experiment: FACS, Ba/F3 cells; IC17=0%, DQN0139bb=100%
T18 construct: whole, on cells; also called Ba/F3-HLA-DQ2.5/avenin 3
Source text: as §1

[19] = molecular target: T19, HLA-DQ2.5/hordein 1 peptide complex on Ba/F3 cells (human); experiment: FACS, Ba/F3 cells; IC17=0%, DQN0139bb=100%
T19 construct: whole, on cells; also called Ba/F3-HLA-DQ2.5/hordein 1
Source text: as §1

[20] = molecular target: T20, HLA-DQ2.5/hordein 2 peptide complex on Ba/F3 cells (human); experiment: FACS, Ba/F3 cells; IC17=0%, DQN0139bb=100%
T20 construct: whole, on cells; also called Ba/F3-HLA-DQ2.5/hordein 2
Source text: as §1

[21] = molecular target: T21, HLA-DQ2.5/secalin 1 peptide complex on Ba/F3 cells (human); experiment: FACS, Ba/F3 cells; IC17=0%, DQN0139bb=100%
T21 construct: whole, on cells; also called Ba/F3-HLA-DQ2.5/secalin 1
Source text: as §1

[22] = molecular target: T22, HLA-DQ2.5/secalin 2 peptide complex on Ba/F3 cells (human); experiment: FACS, Ba/F3 cells; IC17=0%, DQN0139bb=100%
T22 construct: whole, on cells; also called Ba/F3-HLA-DQ2.5/secalin 2
Source text: as §1

[23] = molecular target: T23, HLA-DQ2.5/14mer 1 peptide complex on Ba/F3 cells (human); experiment: FACS, Ba/F3 cells; IC17=0%, DQN0139bb=100%
T23 construct: whole, on cells; also called Ba/F3-HLA-DQ2.5/14mer 1
Source text: as §1

[24] = molecular target: T24, HLA-DQ2.5/26mer gliadin peptide complex on Ba/F3 cells (human); experiment: FACS, Ba/F3 cells; IC17=0%, DQN0139bb=100%
T24 construct: whole, on cells; also called Ba/F3-HLA-DQ2.5/26mer gliadin
Source text: as §1

B1: DQN0429cc (antibody, V domains shown)
VH: QEQLVESGGGLVQPEGSLTLTCTASGFSFSSSYYMCWVRQAPGKGLEWIGCIYTGSGSTDYATWVNGRFTISKTSSTTVTLQMTSLTVADTATYFCARDIGIDYNFWGPGTLVTVSS
VL: AFELTQTPSFVEARVGGTVTIKCQATQSISSYLNWYQQKPGQPPKLLIYYASTLASGVPSRFKGSGSGTEFTLTISGVECADAATYYCHYGISYVSFGGGTKVEIK
notes: also called DQN0492cc
- IC50, Jurkat NFAT-Luc T cell activation [1]: 0.00497 µg/mL
- IC50, Jurkat NFAT-Luc T cell activation [2]: 0.0215 µg/mL
- IC50, Jurkat NFAT-Luc T cell activation [3]: 0.235 µg/mL
- IC50, Jurkat NFAT-Luc T cell activation [4]: 0.786 µg/mL
- % MFI (HLA-DQ2.2 on Ba/F3 cells): 0.7%
- % MFI (HLA-DQ7.5 on Ba/F3 cells): 0.2%
- % MFI (HLA-DQ8 on Ba/F3 cells): 0.2%
- % MFI (HLA-DQ7.3 on Ba/F3 cells): 0.2%
- % MFI [5]: 0.2%
- % MFI [6]: 50.2%
- % MFI [7]: 67.7%
- % MFI [8]: 36.6%
- % MFI [9]: 6.2%
- % MFI [10]: 13.4%
- % MFI [11]: 45.5%
- % MFI [12]: 26.4%
- % MFI [13]: 9.4%
- % MFI [14]: 15.7%
- % MFI [15]: 13.6%
- % MFI [16]: 0.8%
- % MFI [17]: 2.9%
- % MFI [18]: 0.1%
- % MFI [19]: 4.5%
- % MFI [20]: 70.6%
- % MFI [21]: 11.8%
- % MFI [22]: 27.7%
- % MFI [23]: 58.5%
- % MFI [24]: 64%
